{"source": "patent US20250223353A1", "about": "(BIOTHEUS, published 2025)", "binders": {"B1": {"name": "ADI-56127 Fab fragment (Fab, V domains shown)", "VH": "QVQLVQSGAEVKKPGSSVKVSCKASGGTESVDAISWVRQAPGQGLEWMGDIIPFFDTDYAQKFQGRVTITADESTSTAYMELSSLRSEDTAVYYCAREGGTSWTHFFDLWGRGTLVTVSS", "VL": "not shown", "notes": "Fab made by papain digestion of the yeast full-length IgG, purified with Kappa Select"}}, "assay_in_all_cases": "BLI (ForteBio), PVRIG-Fc on AHQ sensor, 100 nM Fab in solution, monovalent, 1:1 model", "key": {"human PVRIG-Fc protein": {"molecular_target": "T1, human PVRIG-Fc protein (human, UniProt Q6DKI7 41-171)", "T1 construct": "also called PVRIG-Fc antigen (human); not shown: Fc part", "T1 sequence": "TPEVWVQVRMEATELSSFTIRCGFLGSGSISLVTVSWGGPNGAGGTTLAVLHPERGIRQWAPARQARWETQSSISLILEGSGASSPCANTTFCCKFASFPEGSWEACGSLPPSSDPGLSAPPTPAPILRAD", "protocol": "(§1) Biofilm layer optical interference technology (ForteBio) was used to determine the binding and dissociation rate constant (KD) values of the antibodies and their variants or Fab fragments obtained in Example 1 to human, cynomolgus monkey and mouse PVRIG. ForteBio affinity measurement was performed according to existing methods (Este, P et al., High throughput solution-based measurement of antibody-antigen affinity and epitope binning. Mabs, 2013.5 (2): p270-8).\n(§2) The antigen-loaded sensor was incubated in 100 nM Fab solution to the plateau phase, and then the sensor was transferred to an analysis buffer and incubated for at least 2 minutes for measuring dissociation rate. The kinetic analysis was performed using a 1:1 binding model."}, "[1]": {"molecular_target": "T2, cynomolgus monkey PVRIG-Fc protein (cynomolgus monkey, UniProt Q6DKI7 41-171 (human entry), limits assumed)", "T2 construct": "also called cynomolgus PVRIG-Fc protein; not shown: Fc part", "T2 chain": "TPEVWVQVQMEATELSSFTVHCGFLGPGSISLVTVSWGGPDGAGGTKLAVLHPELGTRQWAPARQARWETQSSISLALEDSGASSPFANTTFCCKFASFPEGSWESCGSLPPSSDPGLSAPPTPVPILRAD", "protocol": "as §1, §2"}, "mouse PVRIG-Fc protein": {"molecular_target": "T3, mouse PVRIG-Fc protein (mouse)", "T3 construct": "not shown: Fc part", "T3 chain": "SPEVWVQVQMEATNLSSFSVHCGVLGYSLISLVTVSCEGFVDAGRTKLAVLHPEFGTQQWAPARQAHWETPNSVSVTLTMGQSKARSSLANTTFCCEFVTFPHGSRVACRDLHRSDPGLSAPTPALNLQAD", "protocol": "as §1, §2"}}, "data": [{"binder": "B1", "values": [{"measurement": "Kd", "setting": "human PVRIG-Fc protein", "result": 0.061, "unit": "nM"}, {"measurement": "Kd", "setting": "[1]", "result": 0.128, "unit": "nM"}, {"measurement": "Kd", "setting": "mouse PVRIG-Fc protein", "result": 114, "unit": "nM"}]}]}
